{"source": "patent US20220340642A1", "about": "(Kyowa Kirin, published 2022)", "binders": {"B1": {"name": "chimera A-E57K_R58D-Fc (Eg1S LALAGANA) (Fc fusion)", "chain": "ETFPPKYLHYDEETSHQLLCDKCPPGTYLKQHCTAKWKTVCAPCPPRHYTQFWNYLKDCRYCNVLCGEREEEARACHATHNRACRCRTGFFAHAGFCLEHASCPPGAGVIAPGTPSQNTQCQPCPDGFFSNETSSKAPCRKHTNCSVFGLLLTQKGNATHDNICSGNSESTQKEPKSSDKTHTCPPCPAPEAAGAPSVFLFPPKPKDTLMISRTPEVTCVVVDVSHEDPEVKFNWYVDGVEVHNAKTKPREEQYNSTYRVVSVLTVLHQDWLNGKEYKCKVSNKALPAPIEKTISKAKGQPREPQVYTLPPSRDELTKNQVSLTCLVKGFYPSDIAVEWESNGQPENNYKTTPPVLDSDGSFFLYSKLTVDKSRWQQGNVFSCSVMHEALHAHYTQKSLSLSPGK"}, "B2": {"name": "chimera A-E57K-Fc (Eg1S YTE) (Fc fusion)", "chain": "B1 chain with D58R, A192L, A193L, A195G, M210Y, S212T, T214E, A392N"}, "B3": {"name": "chimera A-E57K-Fc (Eg1S LALAGANA) (Fc fusion)", "chain": "B1 chain with D58R"}, "B4": {"name": "chimera A-E57V-Fc (Eg1S YTE) (Fc fusion)", "chain": "B1 chain with K57V, D58R, A192L, A193L, A195G, M210Y, S212T, T214E, A392N"}, "B5": {"name": "chimera A-Fc (Eg1S YTE) (Fc fusion)", "chain": "B1 chain with K57E, D58R, A192L, A193L, A195G, M210Y, S212T, T214E, A392N"}, "B6": {"name": "chimera A-E57R-Fc (Eg1S LALAGANA) (Fc fusion)", "chain": "B1 chain with K57R, D58R"}, "B7": {"name": "chimera A-E57R-Fc (Eg1S YTE) (Fc fusion)", "chain": "B1 chain with K57R, D58R, A192L, A193L, A195G, M210Y, S212T, T214E, A392N"}, "B8": {"name": "chimera A-E57K_R58E-Fc (Eg1S LALAGANA) (Fc fusion)", "chain": "B1 chain with D58E"}, "B9": {"name": "chimera A-Fc (Eg1S LALAGANA) (Fc fusion)", "chain": "B1 chain with K57E, D58R"}, "B10": {"name": "chimera A-E57V-Fc (Eg1S LALAGANA) (Fc fusion)", "chain": "B1 chain with K57V, D58R"}, "B11": {"name": "chimera A-E57K_R58D-Fc (Eg1S YTE) (Fc fusion)", "chain": "B1 chain with A192L, A193L, A195G, M210Y, S212T, T214E, A392N", "notes": "also called 45-10-Fc (Eg1S YTE)"}, "B12": {"name": "chimera A-E57K_R58E-Fc (Eg1S YTE) (Fc fusion)", "chain": "B1 chain with D58E, A192L, A193L, A195G, M210Y, S212T, T214E, A392N", "notes": "also called 45-18-Fc (Eg1S YTE)"}}, "note": "Positions count from the first letter of the chain named. Names may count otherwise."}
{"target": "T1, soluble recombinant of cynomolgus monkey LIGHT (His10, GS linker, Asp74-Val240)", "T1 chain": "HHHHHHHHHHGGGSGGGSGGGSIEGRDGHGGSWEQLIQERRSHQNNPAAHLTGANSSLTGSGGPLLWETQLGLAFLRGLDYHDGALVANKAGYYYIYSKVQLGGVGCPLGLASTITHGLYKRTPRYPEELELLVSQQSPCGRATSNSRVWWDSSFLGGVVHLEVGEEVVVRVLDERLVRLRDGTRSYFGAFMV", "assay": "BIAcore SPR", "outline": "(§1)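 The dissociation constant (Kd, nM) reflects binding of each test molecule to soluble recombinant His-tagged human or cynomolgus monkey LIGHT, TL1A or FasL. It was derived from surface plasmon resonance measurements in HBS-EP+ Buffer using a BIAcore T-100 or T-200 instrument (GE Healthcare).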", "units": {"Kd": "nM"}}
{"binder": "B1", "Kd": 0.3}
{"binder": "B2", "Kd": 0.26}
{"binder": "B3", "Kd": 0.28}
{"binder": "B4", "Kd": 0.34}
{"binder": "B5", "Kd": 0.28}
{"binder": "B6", "Kd": 0.29}
{"binder": "B7", "Kd": 0.3}
{"binder": "B8", "Kd": 0.28}
{"binder": "B9", "Kd": 0.21}
{"binder": "B10", "Kd": 0.35}
{"binder": "B11", "Kd": 0.31}
{"binder": "B12", "Kd": 0.35}
{"target": "T2, soluble recombinant of cynomolgus monkey FasL (His6, Pro133-Leu280) (UniProt P63308 133-280)", "T2 chain": "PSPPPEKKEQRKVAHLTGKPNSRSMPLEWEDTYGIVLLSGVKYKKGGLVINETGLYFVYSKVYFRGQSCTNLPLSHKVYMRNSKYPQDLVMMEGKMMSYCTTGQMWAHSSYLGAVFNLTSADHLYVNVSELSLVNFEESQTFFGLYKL", "assay": "BIAcore SPR", "outline": "as §1", "units": {"Kd": "nM"}}
{"binder": "B1", "Kd": 0.96}
{"binder": "B2", "Kd": 1.1}
{"binder": "B3", "Kd": 1.1}
{"binder": "B4", "Kd": 1.1}
{"binder": "B5", "Kd": 0.27}
{"binder": "B6", "Kd": 1.1}
{"binder": "B7", "Kd": 1.2}
{"binder": "B8", "Kd": 0.99}
{"binder": "B9", "Kd": 0.22}
{"binder": "B10", "Kd": 1.1}
{"binder": "B11", "Kd": 1.2}
{"binder": "B12", "Kd": 1.2}
{"target": "T3, soluble recombinant of cynomolgus monkey TL1A (His6, GS linker, Leu72-Leu251)", "T3 chain": "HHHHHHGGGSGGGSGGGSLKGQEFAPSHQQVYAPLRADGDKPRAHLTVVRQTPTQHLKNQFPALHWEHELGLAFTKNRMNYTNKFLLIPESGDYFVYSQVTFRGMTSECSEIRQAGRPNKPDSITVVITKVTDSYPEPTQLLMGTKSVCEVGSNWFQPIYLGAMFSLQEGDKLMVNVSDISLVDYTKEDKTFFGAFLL", "assay": "BIAcore SPR", "outline": "as §1", "units": {"Kd": "nM"}}
{"binder": "B1", "Kd": 0.19}
{"binder": "B2", "Kd": 0.31}
{"binder": "B3", "Kd": 0.27}
{"binder": "B4", "Kd": 0.22}
{"binder": "B5", "Kd": 0.17}
{"binder": "B6", "Kd": 0.32}
{"binder": "B7", "Kd": 0.36}
{"binder": "B8", "Kd": 0.17}
{"binder": "B9", "Kd": 0.11}
{"binder": "B10", "Kd": 0.21}
{"binder": "B11", "Kd": 0.25}
{"binder": "B12", "Kd": 0.21}
{"target": "T4, membrane-bound human FasL (Met and FLAG tag at the N-terminus) on CHO-K1 cells (human, UniProt P48023 2-281)", "T4 construct": "also called FasL/CHO", "T4 sequence": "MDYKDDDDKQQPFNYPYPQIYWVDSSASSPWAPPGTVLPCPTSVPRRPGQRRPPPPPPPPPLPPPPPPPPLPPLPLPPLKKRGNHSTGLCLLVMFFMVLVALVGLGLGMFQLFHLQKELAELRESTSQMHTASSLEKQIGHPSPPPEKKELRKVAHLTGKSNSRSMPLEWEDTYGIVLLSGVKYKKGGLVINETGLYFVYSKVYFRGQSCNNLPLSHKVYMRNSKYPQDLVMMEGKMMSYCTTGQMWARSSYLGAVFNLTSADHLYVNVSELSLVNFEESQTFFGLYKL", "assay": "flow cytometry on expressing cells", "outline": "(§2)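 Binding was measured by flow cytometry on HEK293 cells forced to express membrane-bound LIGHT and on cell lines expressing N-terminally Met/FLAG-tagged TL1A or FasL from a CMV-promoter pClpuro vector. Cells at 1×10⁵ cells/well received 1 or 10 μg/mL protein on ice for 1 hour. After washing, cells were stained on ice for 1 hour with LIVE/DEAD Fixable Aqua and R-phycoerythrin goat F(ab′)₂ anti-human IgG (10 ng/mL, 0.1 or 1 μg/mL). Fluorescence was read on a FACS Fortessa.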"}
{"binder": "B1", "binding result": "binds"}
{"binder": "B2", "binding result": "binds"}
{"binder": "B3", "binding result": "binds"}
{"binder": "B4", "binding result": "binds"}
{"binder": "B6", "binding result": "binds"}
{"binder": "B7", "binding result": "binds"}
{"binder": "B8", "binding result": "binds"}
{"binder": "B10", "binding result": "binds"}
{"binder": "B11", "binding result": "binds"}
{"binder": "B12", "binding result": "binds"}
{"target": "T5, membrane-bound human LIGHT (human, UniProt O43557 1-240)", "T5 construct": "whole, on cells; also called LIGHT/HEK293", "T5 sequence (O43557 whole entry)": "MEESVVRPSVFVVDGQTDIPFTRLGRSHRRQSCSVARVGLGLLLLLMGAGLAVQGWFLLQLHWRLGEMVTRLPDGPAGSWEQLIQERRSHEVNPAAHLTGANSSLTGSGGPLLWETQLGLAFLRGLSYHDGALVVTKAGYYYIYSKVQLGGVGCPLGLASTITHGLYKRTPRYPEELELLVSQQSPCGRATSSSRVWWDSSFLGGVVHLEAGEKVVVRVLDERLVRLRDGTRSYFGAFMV", "assay": "flow cytometry on expressing cells", "outline": "as §2"}
{"binder": "B1", "binding result": "binds"}
{"binder": "B2", "binding result": "binds"}
{"binder": "B3", "binding result": "binds"}
{"binder": "B4", "binding result": "binds"}
{"binder": "B5", "binding result": "binds"}
{"binder": "B6", "binding result": "binds"}
{"binder": "B7", "binding result": "binds"}
{"binder": "B8", "binding result": "binds"}
{"binder": "B9", "binding result": "binds"}
{"binder": "B10", "binding result": "binds"}
{"binder": "B11", "binding result": "binds"}
{"binder": "B12", "binding result": "binds"}
{"target": "T6, membrane-bound human TL1A (Met and FLAG tag at the N-terminus) on CHO-K1 cells (human, UniProt O95150 2-251)", "T6 construct": "also called TL1A/CHO", "T6 sequence": "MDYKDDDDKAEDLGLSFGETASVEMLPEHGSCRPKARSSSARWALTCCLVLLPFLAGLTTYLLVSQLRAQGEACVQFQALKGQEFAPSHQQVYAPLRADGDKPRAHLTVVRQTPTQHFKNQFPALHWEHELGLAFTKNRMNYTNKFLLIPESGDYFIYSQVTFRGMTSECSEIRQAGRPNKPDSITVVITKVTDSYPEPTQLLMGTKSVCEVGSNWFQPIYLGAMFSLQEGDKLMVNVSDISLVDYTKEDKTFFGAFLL", "assay": "flow cytometry on expressing cells", "outline": "as §2"}
{"binder": "B1", "binding result": "binds"}
{"binder": "B2", "binding result": "binds"}
{"binder": "B3", "binding result": "binds"}
{"binder": "B4", "binding result": "binds"}
{"binder": "B5", "binding result": "binds"}
{"binder": "B6", "binding result": "binds"}
{"binder": "B7", "binding result": "binds"}
{"binder": "B8", "binding result": "binds"}
{"binder": "B9", "binding result": "binds"}
{"binder": "B10", "binding result": "binds"}
{"binder": "B11", "binding result": "binds"}
{"binder": "B12", "binding result": "binds"}
